Among the data in article PMC7867188, “Biosensor-Based Directed Evolution of Methanol Dehydrogenase from Lysinibacillus xylanilyticus” (International Journal of Molecular Sciences, 2021) are Km and kcat values, retold here.

Numbering of substitutions follows the chain as printed. Names may count otherwise.

The Km is the substrate concentration at which the rate is half of its maximum. Usually kcat stands for the number of substrate molecules converted per active site and unit of time at saturation.

The labels stand for the following.
B1: Lxmdh (methanol dehydrogenase, Mdh, NAD-dependent) (Lysinibacillus xylanilyticus) (protein)
chain: MSDVLKQFVMPKTNLFGPGAIQEVGTRLNDLEVKKTLIVTDEGLHKLGLSEQIANIITAAGIDVAIFPKAEPNPTDQNIEDGIAVYHAENCDSIVSLGGGSAHDAAKGIGLIASNGGRIHDYEGVDKSQNPLVPLIAINTTAGTASEMTRFTIITDTARKVKMAIVDKHVTPLLSINDPELMIGLPPALTAATGLDALTHAIESFVSTNATPITDACAEKVLQLVPEYLPRAYANGADLEAREQMVYAQFLAGMAFNNASLGYVHAIAHQLGGFYNLPHGVCNAILLPHVCRFNLTARTERFARIAELLGENVEALSKRDAAEKAIVAIENLSRDLNIPSGFRELGAKDEDIEILAKNAMLDVCAATNPRKATLEEIKQIITNAMGPVAKKEESLEAVALS
notes: His-tagged (pET28a; cloning primers indicate N-terminal His/thrombin tag and native stop), expressed in E. coli, Ni-NTA purified; cloning primers encode N-terminus MSDVLK and C-terminus KAVALS
B2: Lxmdh (methanol dehydrogenase, Mdh, NAD-dependent) (Lysinibacillus xylanilyticus; E396V) (protein)
chain: B1 chain with E396V
notes: as for B1
B3: Lxmdh (methanol dehydrogenase, Mdh, NAD-dependent) (Lysinibacillus xylanilyticus; K318N) (protein)
chain: B1 chain with K318N
notes: as for B1
B4: Lxmdh (methanol dehydrogenase, Mdh, NAD-dependent) (Lysinibacillus xylanilyticus; E396V/K318N) (protein)
chain: B1 chain with K318N, E396V
notes: as for B1
B5: Lxmdh (methanol dehydrogenase, Mdh, NAD-dependent) (Lysinibacillus xylanilyticus; K46E) (protein)
chain: B1 chain with K46E
notes: as for B1

Substrate in this data set: CO
Description: HPLC of formaldehyde after O-benzylhydroxylamine derivatization; Michaelis-Menten nonlinear fit. It is filed as biochemical, Lysinibacillus xylanilyticus. Particulars: 3 mM NAD+, 5 mM Mg2+, 50 mM CHES pH 9.5, 55 °C, 10 min, 0-5 mM methanol. The text has this: HPLC of formaldehyde after O-benzylhydroxylamine derivatization; Michaelis-Menten nonlinear fit on Lxmdh (methanol dehydrogenase, Mdh, NAD-dependent)
For B1, the Km turned out to be 1311 ± 406 µM and the kcat amounted to 0.0333 ± 0.00333 s⁻¹.
As for B2, the Km came to 10 ± 3 µM and the kcat came out at 0.02 ± 0.00167 s⁻¹.
Taken in the same sequence, the figures for B3 were 46 ± 72 µM and 0.0267 ± 0.005 s⁻¹.
Taken in the same sequence, the figures for B4 were 233 ± 107 µM and 0.0217 ± 0.00167 s⁻¹.
Turning to B5, the Michaelis constant (Km) came out at 372 ± 231 µM and the kcat turned out to be 0.0283 ± 0.00333 s⁻¹.
